How the values were obtained:
Conditions in all cases: remark: other sources report otherwise
[1] = target: recombinant homotrimeric HA A/Vietnam/1203/04 H5N1 (Influenza A virus A/VietNam/1203/2004(H5N1)); experiment: protein microarray, purified IgG, trimeric HA
[2] = target: recombinant homotrimeric HA A/Solomon Islands/3/06 H1N1 (Influenza A virus A/Solomon Islands/3/2006(H1N1)); experiment: protein microarray, purified IgG, trimeric HA
[3] = target: recombinant homotrimeric HA A/northern shoveler/California/HKWF115/07 H6N4 (Influenza A virus A/northern shoveler/California/HKWF115/2007(H6N1)); experiment: protein microarray, purified IgG, trimeric HA
[4] = target: recombinant homotrimeric HA A/Japan/305/57 H2N2 (Influenza A virus A/Japan/305/1957(H2N2)); experiment: protein microarray, purified IgG, trimeric HA
[5] = target: recombinant homotrimeric HA A/Wisconsin/67/05 H3N2 (Influenza A virus A/Wisconsin/67/2005(H3N2)); experiment: protein microarray, purified IgG, trimeric HA
[6] = target: recombinant homotrimeric HA A/Hong Kong/1073/99 H9N2 (Influenza A virus A/Hong Kong/1073/99 (H9N2)); experiment: protein microarray, purified IgG, trimeric HA
[7] = target: recombinant homotrimeric HA A/Indonesia/5/05 H5N1 (Influenza A virus A/Indonesia/5/2005(H5N1)); experiment: protein microarray, purified IgG, trimeric HA
[8] = target: recombinant homotrimeric HA A/Hong Kong/2108/03 H9N2 (Influenza A virus A/HK/2108/2003(H9N2)); experiment: protein microarray, purified IgG, trimeric HA
[9] = target: recombinant homotrimeric HA A/Hong Kong/156/97 H5N1 (Influenza A virus A/Hong Kong/156/97 (H5N1)); experiment: protein microarray, purified IgG, trimeric HA
[10] = target: recombinant homotrimeric HA A/chicken/Vietnam/NCVD-016/08 H5N1 (Influenza A virus A/chicken/Vietnam/NCVD-016/2008(H5N1)); experiment: protein microarray, purified IgG, trimeric HA
[11] = target: recombinant homotrimeric HA A/South Carolina/1/18 H1N1 (Influenza A virus A/South Carolina/1/18 (H1N1)); experiment: protein microarray, purified IgG, trimeric HA
[12] = target: recombinant homotrimeric HA A/Netherlands/219/03 H7N7 (Influenza A virus A/Netherlands/219/03(H7N7)); experiment: protein microarray, purified IgG, trimeric HA
[13] = target: recombinant homotrimeric HA A/Egypt/3300-NAMRU3/08 H5N1 (Influenza A virus A/Egypt/3300-NAMRU3/2008(H5N1)); experiment: protein microarray, purified IgG, trimeric HA
[14] = target: recombinant homotrimeric HA A/California/4/09 H1N1 (Influenza A virus A/California/04/2009(H1N1)); experiment: protein microarray, purified IgG, trimeric HA
[15] = target: recombinant soluble homotrimeric HA of A/Vietnam/1203/04 (H5N1) (Influenza A virus A/VietNam/1203/2004(H5N1)); experiment: HA microarray, BCC supernatant
[16] = target: recombinant soluble homotrimeric HA of A/chicken/Vietnam/NCVD-016/08 (H5N1) (Influenza A virus A/chicken/Vietnam/NCVD-016/2008(H5N1)); experiment: HA microarray, BCC supernatant
[17] = target: recombinant soluble homotrimeric HA of A/northern shoveler/California/HKWF115/07 (H6) (Influenza A virus A/northern shoveler/California/HKWF115/2007(H6N1)); experiment: HA microarray, BCC supernatant
[18] = target: recombinant soluble homotrimeric HA of A/Solomon Islands/3/06 (H1N1) (Influenza A virus A/Solomon Islands/3/2006(H1N1)); experiment: HA microarray, BCC supernatant
[19] = target: recombinant soluble homotrimeric HA of A/swine/Ontario/01911-2/99 (H4N6) (Influenza A virus A/Swine/Ontario/01911-2/99 (H4N6)); experiment: HA microarray, BCC supernatant
[20] = target: recombinant soluble homotrimeric HA of A/California/4/09 (H1N1) (Influenza A virus A/California/04/2009(H1N1)); experiment: HA microarray, BCC supernatant
[21] = target: recombinant soluble homotrimeric HA of A/Japan/305/57 (H2N2) (Influenza A virus A/Japan/305/1957(H2N2)); experiment: HA microarray, BCC supernatant
[22] = target: recombinant soluble homotrimeric HA of A/Indonesia/5/05 (H5N1) (Influenza A virus A/Indonesia/5/2005(H5N1)); experiment: HA microarray, BCC supernatant
[23] = target: recombinant soluble homotrimeric HA of A/Netherlands/219/03 (H7N7) (Influenza A virus A/Netherlands/219/03(H7N7)); experiment: HA microarray, BCC supernatant
[24] = target: recombinant soluble homotrimeric HA of A/Anhui/1/05 (H5N1) (Influenza A virus A/Anhui/1/2005(H5N1)); experiment: HA microarray, BCC supernatant
[25] = target: recombinant soluble homotrimeric HA of A/Hong Kong/2108/03 (H9N2) (Influenza A virus A/HK/2108/2003(H9N2)); experiment: HA microarray, BCC supernatant
[26] = target: recombinant soluble homotrimeric HA of A/duck/Yangzhou/02/05 (H8N4) (Influenza A virus A/duck/Yangzhou/02/2005(H8N4)); experiment: HA microarray, BCC supernatant
[27] = target: recombinant soluble homotrimeric HA of A/Wisconsin/67/05 (H3N2) (Influenza A virus A/Wisconsin/67/2005(H3N2)); experiment: HA microarray, BCC supernatant
[28] = target: recombinant homotrimeric HA A/Anhui/1/05 H5N1 (Influenza A virus A/Anhui/1/2005(H5N1)); experiment: protein microarray, purified IgG, trimeric HA

Binder | Trimeric HA Binding: RLU [1] | Trimeric HA Binding: RLU [2] | Trimeric HA Binding: RLU [3] | Trimeric HA Binding: RLU [4] | Trimeric HA Binding: RLU [5] | Trimeric HA Binding: RLU [6] | Trimeric HA Binding: RLU [7] | Trimeric HA Binding: RLU [8] | Trimeric HA Binding: RLU [9] | Trimeric HA Binding: RLU [11] | Trimeric HA Binding: RLU [12] | Trimeric HA Binding: RLU [13] | Trimeric HA Binding: RLU [15] | Trimeric HA Binding: RLU [17] | Trimeric HA Binding: RLU [18] | Trimeric HA Binding: RLU [19] | Trimeric HA Binding: RLU [21] | Trimeric HA Binding: RLU [23] | Trimeric HA Binding: RLU [25] | Trimeric HA Binding: RLU [27] | further results
TCN-530 (5248_H10a) (antibody, V domains shown) VH: QVQLVQSGAEVRKPGSSVKVSCKASGGPFMSYAIGWVRQAPGQGLEWMGGINPVFGRPHYAQKFQGRVTIATDDSTKTSYMELSSLTSEDTGMYYCASRYSRSSPGTFESWGQGTLVTVSS VL: EIVMTQFPATLSVSPGERVTLSCRASQSVSNNLAWYQQKPGQPPRLLIYDASTRATGVPAKFSGTGSGTEFTLSISSLQSEDFAVYYCQQYHNWPPSYSFGLGTKLEIK | 19100 RLU | 8570 RLU | 9010 RLU | 9040 RLU | 132 RLU | 874 RLU | 10900 RLU | 169 RLU | 14000 RLU | 7360 RLU | 402 RLU | 12300 RLU | 7150 RLU | 45300 RLU | 32800 RLU | 2740 RLU | 47000 RLU | 2900 RLU | 486 RLU | 36800 RLU | Trimeric HA Binding: RLU [10]: 2050 RLU; Trimeric HA Binding: RLU [14]: 14200 RLU; Trimeric HA Binding: RLU [16]: 48300 RLU; Trimeric HA Binding: RLU [20]: 46600 RLU; Trimeric HA Binding: RLU [22]: 39800 RLU; Trimeric HA Binding: RLU [24]: 11900 RLU; Trimeric HA Binding: RLU [26]: 41700 RLU
TCN-543 (5081_G23) (antibody, V domains shown) VH: QVHLVQSGAEVRKPGDSVKVSCKTSGYTFSTYPVAWVRQVPGQGLEWMGWISTYNGNTNFAQNFQGRVTLTTDTTTNTAYMEVRSLKFDDTAVYYCARVEGSYRDFWNNQNRFDPWGQGTLVTVSS VL: SYVLTQPPSVSVAPGQTARISCGGSNIGGKSVHWYQQKPGQAPVLVVYDDSGRPSGIPERFSGSNSGDTATLTISRVEAGDEADYFCQVWDNFGGVFGTGTKVTVL | 640 RLU | 18300 RLU | 101 RLU | 14000 RLU | 302 RLU | 9160 RLU | 91 RLU | 135 RLU | 112 RLU | 259 RLU | 162 RLU | 580 RLU | 488 RLU | 2130 RLU | 511 RLU | 428 RLU | 197 RLU | 661 RLU | 131 RLU | 1360 RLU | Trimeric HA Binding: RLU [28]: 601 RLU
TCN-535 (5246_P19) (antibody, V domains shown) VH: QVQLVQSGSEVKKPGTSVKVSCTASGSVFTNYGISWVRQAPGQGLEWMGGIIPLFGAAKYAQKFQGRVTITADESTKTVYMELSRLTSKDTAIYFCAKAPRVYEYYFDQWGQGTPVTVSS VL: EIVLTQSPGTLSLSPGERATLSCRASQSVSSSQLAWYQQKPGQAPRLIIYGASTRATGIPDRFSGSGSGTDFTLTIGRLEPEDFAVFFCQQYSTSPPTFGQGTKVDFK | 20800 RLU | 11300 RLU | 5880 RLU | 13000 RLU | 148 RLU | 3470 RLU | 17900 RLU | – | 13200 RLU | 5660 RLU | 339 RLU | 18100 RLU | 4740 RLU | 48200 RLU | 39400 RLU | 5950 RLU | 26100 RLU | 4760 RLU | 861 RLU | 34300 RLU | Trimeric HA Binding: RLU [10]: 2630 RLU; Trimeric HA Binding: RLU [28]: 6700 RLU; Trimeric HA Binding: RLU [14]: 17200 RLU; Trimeric HA Binding: RLU [16]: 50000 RLU; Trimeric HA Binding: RLU [20]: 48600 RLU; Trimeric HA Binding: RLU [22]: 45600 RLU; Trimeric HA Binding: RLU [24]: 6880 RLU; Trimeric HA Binding: RLU [26]: 36600 RLU
TCN-550 (5096_F06) (antibody, V domains shown) VH: QVQLQESGPGLVKPSETLSLTCTVSGASINSHYWSWIRQPPGKGLEWIGYVYYSGSTTYNPSLKSRVTLSVDTSKNQFSLNLSSVTAADTAFYYCARHPYDVLTGSGDWFDPWGQGTLVTVSS VL: SYVLTQAPSVSVAPGQTARITCGGNAIGSKKVHWYQHKAGQAPVLVVYDDTDRPSGIPERFSGSNSWSTATLTINRVEAGDEADYYCQVWDFTIDHVVFGGGTKLTVL | 829 RLU | 752 RLU | 106 RLU | 499 RLU | 21300 RLU | 413 RLU | – | 150 RLU | 304 RLU | 104 RLU | 223 RLU | 3530 RLU | 277 RLU | 964 RLU | 204 RLU | 195 RLU | 201 RLU | 939 RLU | 2280 RLU | 26300 RLU | Trimeric HA Binding: RLU [10]: 295 RLU; Trimeric HA Binding: RLU [28]: 4780 RLU; Trimeric HA Binding: RLU [14]: 238 RLU; Trimeric HA Binding: RLU [16]: 361 RLU; Trimeric HA Binding: RLU [20]: 454 RLU; Trimeric HA Binding: RLU [22]: 9100 RLU; Trimeric HA Binding: RLU [24]: 1210 RLU; Trimeric HA Binding: RLU [26]: 407 RLU

From US20150086555A1
